Key:
[1] = target: LH1 αβ heterodimer (Rhodopseudomonas palustris CGA009) (UniProt Q6N9L4); test: cryo-EM structure; RC-LH1_(14)-W complex purified from the PufW-His strain; in IMAC buffer (20 mM tris-HCl pH 8.0, 200 mM NaCl, 0.03% β-DDM); 2.65 Å
[2] = target: LH1 αβ heterodimer (Rhodopseudomonas palustris CGA009) (UniProt Q6N9L4); test: cryo-EM structure; RC-LH1_(16) complex purified from the ΔpufW strain (no protein-W); diluted in IMAC buffer (20 mM tris-HCl pH 8.0, 200 mM NaCl, 0.03% β-DDM); 2.80 Å

stoichiometry N (αβ heterodimers in the open ring) [1]: 14 | stoichiometry N (αβ heterodimers in the closed ring) [2]: 16
Substance: LH1 αβ heterodimer (from UniProt Q6N9L4 1-50; Q6N9L5 2-53) (complex)
